Sequences and labels used below:
B1: GLS3000 N53K (antibody, name in Kabat numbering, V domains shown)
VH: QVQLVESGGGVVQPGRSLRLSCAASGFTFSNAWMHWVRQAPGKGLEWVAQIKAKSNNYATYYAESVKGRFTISRDDSKNSLYLQMNSLKTEDTAVYYCRYVHYGAYYGVDAWGQGTTVTVSS
VL: DIVMTQSPLSLPVTPGEPASISCRSSQSLVHSNRNTYLHWYQQKPGQAPRLLIYKVSKRFSGVPDRFSGSGSGTDFTLKISRVEAEDVGVYYCGQGTQVPYTFGQGTKLEIK
notes: one-arm IgG as m2
B2: GLS3000 R24Q (antibody, name in Kabat numbering, V domains shown)
VH: B1 VH
VL: B1 VL with R24Q, K58N
notes: one-arm IgG as m2
B3: GLS3000 Q90Y (antibody, name in Kabat numbering, V domains shown)
VH: B1 VH
VL: B1 VL with K58N, Q95Y
notes: one-arm IgG as m2
B4: GLS3000 Q90S (antibody, name in Kabat numbering, V domains shown)
VH: B1 VH
VL: B1 VL with K58N, Q95S
notes: one-arm IgG as m2
B5: GLS3000 Q93R (antibody, name in Kabat numbering, V domains shown)
VH: B1 VH
VL: B1 VL with K58N, Q98R
notes: one-arm IgG as m2
B6: GLS3000 Q93Y (antibody, name in Kabat numbering, V domains shown)
VH: B1 VH
VL: B1 VL with K58N, Q98Y
notes: one-arm IgG as m2
B7: GLS3000 Q27D (antibody, name in Kabat numbering, V domains shown)
VH: B1 VH
VL: B1 VL with Q27D, K58N
notes: one-arm IgG as m2
B8: GLS3000 Q27P (antibody, name in Kabat numbering, V domains shown)
VH: B1 VH
VL: B1 VL with Q27P, K58N
notes: one-arm IgG as m2
B9: GLS3000 R24T (antibody, name in Kabat numbering, V domains shown)
VH: B1 VH
VL: B1 VL with R24T, K58N
notes: one-arm IgG as m2
B10: GLS3000 Q27E (antibody, name in Kabat numbering, V domains shown)
VH: B1 VH
VL: B1 VL with Q27E, K58N
notes: one-arm IgG as m2
B11: GLS3000 P95L (antibody, name in Kabat numbering, V domains shown)
VH: B1 VH
VL: B1 VL with K58N, P100L
notes: one-arm IgG as m2
B12: GLS3000 Q90A (antibody, name in Kabat numbering, V domains shown)
VH: B1 VH
VL: B1 VL with K58N, Q95A
notes: one-arm IgG as m2
B13: GLS3000 P95A (antibody, name in Kabat numbering, V domains shown)
VH: B1 VH
VL: B1 VL with K58N, P100A
notes: one-arm IgG as m2
B14: GLS3000 R24D (antibody, name in Kabat numbering, V domains shown)
VH: B1 VH
VL: B1 VL with R24D, K58N
notes: one-arm IgG as m2
B15: GLS3000 Q93E (antibody, name in Kabat numbering, V domains shown)
VH: B1 VH
VL: B1 VL with K58N, Q98E
notes: one-arm IgG as m2
B16: GLS3000 N53R (antibody, name in Kabat numbering, V domains shown)
VH: B1 VH
VL: B1 VL with K58R
notes: one-arm IgG as m2
B17: GLS3000 R24S (antibody, name in Kabat numbering, V domains shown)
VH: B1 VH
VL: B1 VL with R24S, K58N
notes: one-arm IgG as m2
B18: GLS3000 N53L (antibody, name in Kabat numbering, V domains shown)
VH: B1 VH
VL: B1 VL with K58L
notes: one-arm IgG as m2
B19: GLS3000 N53P (antibody, name in Kabat numbering, V domains shown)
VH: B1 VH
VL: B1 VL with K58P
notes: one-arm IgG as m2
B20: GLS3000 P95S (antibody, name in Kabat numbering, V domains shown)
VH: B1 VH
VL: B1 VL with K58N, P100S
notes: one-arm IgG as m2
B21: GLS3000 N53W (antibody, name in Kabat numbering, V domains shown)
VH: B1 VH
VL: B1 VL with K58W
notes: one-arm IgG as m2
B22: GLS3000 Q90P (antibody, name in Kabat numbering, V domains shown)
VH: B1 VH
VL: B1 VL with K58N, Q95P
notes: one-arm IgG as m2
B23: GLS3000 Q90E (antibody, name in Kabat numbering, V domains shown)
VH: B1 VH
VL: B1 VL with K58N, Q95E
notes: one-arm IgG as m2
B24: GLS3000 P95D (antibody, name in Kabat numbering, V domains shown)
VH: B1 VH
VL: B1 VL with K58N, P100D
notes: one-arm IgG as m2
B25: GLS3000 Q27R (antibody, name in Kabat numbering, V domains shown)
VH: B1 VH
VL: B1 VL with Q27R, K58N
notes: one-arm IgG as m2
B26: GLS3000 N53V (antibody, name in Kabat numbering, V domains shown)
VH: B1 VH
VL: B1 VL with K58V
notes: one-arm IgG as m2
B27: GLS3000 Q90D (antibody, name in Kabat numbering, V domains shown)
VH: B1 VH
VL: B1 VL with K58N, Q95D
notes: one-arm IgG as m2
B28: GLS3000 R24A (antibody, name in Kabat numbering, V domains shown)
VH: B1 VH
VL: B1 VL with R24A, K58N
notes: one-arm IgG as m2
B29: GLS3000 Q93S (antibody, name in Kabat numbering, V domains shown)
VH: B1 VH
VL: B1 VL with K58N, Q98S
notes: one-arm IgG as m2
B30: GLS3000 Q93P (antibody, name in Kabat numbering, V domains shown)
VH: B1 VH
VL: B1 VL with K58N, Q98P
notes: one-arm IgG as m2
B31: GLS3000 R24G (antibody, name in Kabat numbering, V domains shown)
VH: B1 VH
VL: B1 VL with R24G, K58N
notes: one-arm IgG as m2
B32: GLS3000 R24E (antibody, name in Kabat numbering, V domains shown)
VH: B1 VH
VL: B1 VL with R24E, K58N
notes: one-arm IgG as m2
B33: GLS3000 R24P (antibody, name in Kabat numbering, V domains shown)
VH: B1 VH
VL: B1 VL with R24P, K58N
notes: one-arm IgG as m2
B34: GLS3000 Q93A (antibody, name in Kabat numbering, V domains shown)
VH: B1 VH
VL: B1 VL with K58N, Q98A
notes: one-arm IgG as m2
B35: GLS3000 N53T (antibody, name in Kabat numbering, V domains shown)
VH: B1 VH
VL: B1 VL with K58T
notes: one-arm IgG as m2
B36: GLS3000 Q93D (antibody, name in Kabat numbering, V domains shown)
VH: B1 VH
VL: B1 VL with K58N, Q98D
notes: one-arm IgG as m2
B37: GLS3000 N53S (antibody, name in Kabat numbering, V domains shown)
VH: B1 VH
VL: B1 VL with K58S
notes: one-arm IgG as m2
B38: GLS3000 Q27L (antibody, name in Kabat numbering, V domains shown)
VH: B1 VH
VL: B1 VL with Q27L, K58N
notes: one-arm IgG as m2
B39: GLS3000 N53Y (antibody, name in Kabat numbering, V domains shown)
VH: B1 VH
VL: B1 VL with K58Y
notes: one-arm IgG as m2
B40: GLS3000 N53M (antibody, name in Kabat numbering, V domains shown)
VH: B1 VH
VL: B1 VL with K58M
notes: one-arm IgG as m2
B41: GLS3000 N53Q (antibody, name in Kabat numbering, V domains shown)
VH: B1 VH
VL: B1 VL with K58Q
notes: one-arm IgG as m2
B42: GLS3000 P95E (antibody, name in Kabat numbering, V domains shown)
VH: B1 VH
VL: B1 VL with K58N, P100E
notes: one-arm IgG as m2
B43: GLS3000 P95G (antibody, name in Kabat numbering, V domains shown)
VH: B1 VH
VL: B1 VL with K58N, P100G
notes: one-arm IgG as m2

Positions count from the first letter of the chain named.

The experiment deals with T1, CD3 epsilon homodimer protein (UniProt P07766 23-126).
T1 construct: also called CD3 (CD3 epsilon)
T1 sequence (P07766 23-126): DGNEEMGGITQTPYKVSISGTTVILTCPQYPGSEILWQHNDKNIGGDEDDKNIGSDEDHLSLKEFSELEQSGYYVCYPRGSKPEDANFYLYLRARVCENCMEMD
Briefly: SPR Biacore T200, CD3e homodimer on chip, vs unaltered GLS3000 antibody.
In the case of B1, the “ratio of amounts bound (Z=Y/X)” value is 1.08. With B2, the “ratio of amounts bound (Z=Y/X)” value came to 0.9.

In the case of B3, the “ratio of amounts bound (Z=Y/X)” value worked out at 0.17.

On to B4, for which the “ratio of amounts bound (Z=Y/X)” value turned out to be 0.73. The figure for B5 is 1.13; for B6 it is 0.87; for B7 it is 0.85. Take B8: the “ratio of amounts bound (Z=Y/X)” value was 0.29.

As to B9, the “ratio of amounts bound (Z=Y/X)” value was 0.88. The result for B10 reads 0.88; that for B11, 0.24. For the molecule B12, the “ratio of amounts bound (Z=Y/X)” value turned out to be 0.5.

Consider B13, for which the “ratio of amounts bound (Z=Y/X)” value amounted to 0.63. The result for B14 reads 0.75; that for B15, 0.75.

Turning to B16, the “ratio of amounts bound (Z=Y/X)” value was determined as 1.58. Turning to B17, the “ratio of amounts bound (Z=Y/X)” value was 0.89. With B18, the “ratio of amounts bound (Z=Y/X)” value came out at 0.56. The figure for B19 is 0.81; for B20 it is 0.43; for B21 it is 0.81. The result for B22 reads 0.27. B23: the “ratio of amounts bound (Z=Y/X)” value was 0.86.

As for B24, the “ratio of amounts bound (Z=Y/X)” value came out at 0.24. The figure for B25 is 1.19; for B26 it is 0.56; for B27 it is 0.19. As to B28, the “ratio of amounts bound (Z=Y/X)” value stood at 0.86. The figure for B29 is 0.96; for B30 it is 0.25.

B31: the “ratio of amounts bound (Z=Y/X)” value turned out to be 0.89. Turning to B32, the “ratio of amounts bound (Z=Y/X)” value turned out to be 0.83. The figure for B33 is 0.7; for B34 it is 0.85. The result for B35 reads 0.56; that for B36, 0.72; that for B37, 0.69. The result for B38 reads 0.92. On to B39, for which the “ratio of amounts bound (Z=Y/X)” value came to 0.67. With B40, the “ratio of amounts bound (Z=Y/X)” value worked out at 0.62.

Take B41: the “ratio of amounts bound (Z=Y/X)” value worked out at 0.77. The result for B42 reads 0.39. Turning to B43, the “ratio of amounts bound (Z=Y/X)” value was found to be 0.37.

For the origin of these results see patent US20210388087A1 (Chugai, published 2021).
